Data on one molecule can be found in paper PMC4786724, “NdhM Subunit Is Required for the Stability and the Function of NAD(P)H Dehydrogenase Complexes Involved in CO2 Uptake in Synechocystis sp. Strain PCC 6803* ^([image sbox.jpg])” (The Journal of Biological Chemistry, 2015).

The target in assay [1] is T1, NdhI-His6 (Synechocystis sp. PCC 6803, UniProt P26525 1-193).
T1 construct: NdhI subunit of NDH-1, Synechocystis sp; PCC 6803; fragment containing ndhI cloned into pET28a; also called His-tagged NdhI; source: E. coli BL21(DE3) pLysS, purified (nickel column)
T1 sequence (P26525 whole entry, the tested form may be a part): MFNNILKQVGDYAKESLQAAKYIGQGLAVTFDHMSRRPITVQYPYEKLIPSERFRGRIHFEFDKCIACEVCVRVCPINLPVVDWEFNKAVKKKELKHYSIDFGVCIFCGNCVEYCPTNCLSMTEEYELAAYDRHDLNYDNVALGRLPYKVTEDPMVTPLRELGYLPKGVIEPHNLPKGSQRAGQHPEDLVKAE
Nature of the assay: pull-down; GST-NdhM on glutathione-Sepharose 4B resin as bait, His-tagged Ndh subunits as prey; 2 h at 4 °C in 20 mM Tris-HCl pH 7.5, 100 mM NaCl, 0.1 mM EDTA, 0.2% Triton, 10% glycerol; washed five times with 300 mM NaCl, 0.5% Nonidet P-40; eluates blotted with anti-His antibody. Conditions: both partners purified.

For assay [2], the target named is T2, NdhH-His6 (Synechocystis sp. PCC 6803, UniProt P27724 1-394).
T2 construct: NdhH subunit of NDH-1, Synechocystis sp; PCC 6803; fragment containing ndhH cloned into pET28a; also called His-tagged NdhH; source: E. coli BL21(DE3) pLysS, purified (nickel column)
T2 sequence (looked up): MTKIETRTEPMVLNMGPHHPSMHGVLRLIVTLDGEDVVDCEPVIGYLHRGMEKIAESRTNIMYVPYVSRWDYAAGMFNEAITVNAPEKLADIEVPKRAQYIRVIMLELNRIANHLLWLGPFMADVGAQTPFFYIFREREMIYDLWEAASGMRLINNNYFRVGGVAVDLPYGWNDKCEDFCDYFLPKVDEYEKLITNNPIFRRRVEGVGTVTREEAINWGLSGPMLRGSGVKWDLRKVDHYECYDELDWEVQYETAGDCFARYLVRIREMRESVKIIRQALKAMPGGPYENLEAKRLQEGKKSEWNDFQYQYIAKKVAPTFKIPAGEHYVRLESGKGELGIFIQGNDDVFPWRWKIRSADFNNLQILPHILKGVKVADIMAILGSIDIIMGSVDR
The description is as above. Conditions: both partners purified.

B1: GST-NdhM (natural protein, Synechocystis sp. PCC 6803, UniProt P74338 1-121, looked up)
chain: MLVKSTTRHVRIFSAEVQGNELIPSNNVLTMDVDPDNEFVWNEDALQQVYRRFDELVESYSGEDLTDYNLRRIGSDLEHFIRDLLQAGKVSYNLDCRVLNYSMGLPKVENQETAGKYWLDN
notes: NdhM subunit of NDH-1, Synechocystis sp; PCC 6803, gene slr1623 (ndhM); fragment containing ndhM cloned into pGEX-4T-1; also called recombinant NdhM fused with GST; NdhM fused to GST; source: E. coli BL21(DE3) pLysS, purified (glutathione-Sepharose 4B column)
B1: the binding result in assay [1] and in assay [2] was “binds” throughout.
